Assay results reported in patent US20250154581A1 (BGI SHENZHEN, published 2025).

B1: Spycatcher003-MspA (other)
chain: MVTTLSGLSGEQGPSGDMTTEEDSATHIKFSKRDEDGRELAGATMELRDSSGKTISTWISDGHVKDFYLYPGKYTFVETAAPDGYEVATPIEFTVNEDGQVTVDGEATEGDAHTGGSGGSGGSGLDNELSLVDGQDRTLTVQQWDTFLNGVFPLDRNRLTREWFHSGRAKYIVAGPGADEFEGTLELGYQIGFPWSLGVGINFSYTTPNILIDDGDITAPPFGLNSVITPNLFPGVSISADLGNGPGIQEVATFSVDVSGAEGGVAVSNAHGTVTGAAGGVLLRPFARLIASTGDSVTTYGEPWNMN
notes: Subunit expressed as 6*His-Spycatcher003-MspA; also called 6*His-Spycatcher003-MspA
B2: Spytag003-DDA (enzyme)
chain: RGVPHIVMVDAYKRYKGGSGGSGGSGGSGGSGGSMTFDDLTEGQKNAFNIVMKAIKEKKHHVTINGPAGTGKTTLTKFIIEALISTGGTGIILAAPTHAAKKILSKLSGKEASTIHSILKINPVTYEENVLFEQKEVPDLAKCRVLICDEVSMYDRKLFKILLSTIPPWCTIIGIGDNKQIRPVEPGENTAYISPFFTHKDFYQCELTEVKRSNAPIIDVATDVRNGKWNYDKVVDGHGVRGFTGDTALRDFMVNYFSIVKSLDDLFENRVMAFTNKSVDKLNSIIRKKIFETDKDFIVGEIIVMQEPLFKTYKIDGKPVSEIIFNNGQLVRIIEAEYTSTFVKARGVPGEYLIRHWDLTVETYGDDEYYREKIKIISSDEELYKFNLFLAKTAETYKNWNKGGKAPWSDFWDAKSQFSKVKALPASTFHKAQGMSVDRAFIYTPCIHYADVELAQQLLYVGVTRGRYDVFYV
notes: Expressed from pET.28a(+)-6*His-Spytag003-DDA; also called 6*His-Spytag003-DDA; motor protein Spytag003-DDA

Legend:
Strep-MspA = target: T1, Strep-MspA (Mycolicibacterium smegmatis (strain …, UniProt A0QR29 28-211)); test: co-expression, Strep column co-purification, nickel column imidazole gradient and ion exchange separation
T1 construct: Subunit co-expressed with 6*His-Spycatcher003-MspA; Called simply MspA where the 1:7 complex is described
Method: In the present application, an MspA octamer which only contains one molecule of Spycatcher003 was obtained through the following method. First, the bacterial cells co-expressing 6*His-Spycatcher003-MspA and Strep-MspA obtained in the above step 2 (2) were disrupted by high pressure (Lysis Buffer: 150 mM NaCl, 20 mM Tris, 1% DDM) and purified by Strep column (Wash Buffer: 150 mM NaCl, 20 mM Tris, 0.05% Tween 20; Elution buffer: 150 mM NaCl, 20 mM Tris, 10 mM desthiobiotin) to obtain complexes with different ratios of the two proteins. […] From this, the Spycatcher003-labeled MspA octamer was obtained.

[1] = target: T2, Spycatcher003-MspA(MspA)7 (Mycolicibacterium smegmatis (strain …, UniProt A0QR29 28-211)); test: mixed 1:1.2 (octamer:Spytag003-DDA), 25 C 30 min, covalent Spytag003/Spycatcher003 coupling; Superose 6 Increase size exclusion chromatography
T2 construct: Octamer of one Spycatcher003-MspA and seven Strep-MspA subunits, co-expressed in E. coli; also called Spycatcher003-labeled MspA octamer; MspA octamer formed by Spycatcher003-MspA and MspA in a ratio of 1:7
Method: The Spycatcher003-labeled MspA octamer obtained in the above step 4 was mixed with the Spytag003-DDA obtained in the above step 3 at a ratio of 1:1.2, and reacted at 25° C. for 30 minutes, the Superose 6 increase is used for size exclusion chromatography (Purification Buffer: 150 mM NaCl, 20 mM Tris, 0.05% Tween20) to remove excess Spytag003-DDA protein, and the DDA-Spytag/Spycatcher-MspA complex was collected.

Row | Binder | binding result (Strep-MspA) | binding result [1]
1 | B1 | binds | –
2 | B2 | – | binds
